# According to article PMC5476585:
# Biological target: 25-nucleosome array (human)
substance,measurement,value
Fpr4 FKBP (280-392) (from UniProt Q06205 280-392) (domain or fragment),"magnesium-dependent self-association of 25-nucleosome arrays (0.25, 0.5 and 1 mM MgCl2), chromatin in the pellet fraction after centrifugation",> 90%
